The target in assay [1] is ErbB4 on MCF-7 cells (endogenous) (UniProt Q15303). The assay can be described thus: cell-based or functional assay.
For assay [2], the target named is T1, ErbB4 mutant lacking the C-terminal PDZ binding motif (ErbB4 APBM) (UniProt Q15303 26-1308, limits assumed).
T1 construct: The mutation is a triple alanine substitution of the last three residues, not a deletion; Present in HEK293 cell lysate; also called mutant with a disrupted PBM
The assay can be described thus: GST pull-down from lysates of overexpressing cells, Western blot with anti-ErbB4. As for the experimental part: ErbB4 and mutant was transfected into HEK293 cells using JetPrimePolyPlus transfection kit (PolyPlus Transfections) according to manufacturer's instructions. […] GST and GST ZO-1PDZ1-3 domain fusion proteins were generated, purified, and bound to Glutathione Sepharose-4B (GE Healthcare Life Sciences) using standard protocols. Bound proteins were quantified by SDS-PAGE by using known amounts of BSA as standards. 18 μl of GST beads were incubated with 1 μg of GST fusion proteins. Unbound proteins were removed by washing with ice cold PBS. 300 μg of the transfected cells were then added and incubated at 4° C. for 2 hr followed by washing 4 times with ice cold lysis buffer. The bound fractions were eluted with 4×SDS-PAGE sample buffer, separated by SDS PAGE, immunoblotted onto PVDF membranes and probed with Rabbit anti-ErbB4 antibodies.
In general terms: A western blot detects proteins with antibodies after separation by electrophoresis.

Sequence of ErbB4 on MCF-7 cells (endogenous) (Q15303 26-1308 limits assumed): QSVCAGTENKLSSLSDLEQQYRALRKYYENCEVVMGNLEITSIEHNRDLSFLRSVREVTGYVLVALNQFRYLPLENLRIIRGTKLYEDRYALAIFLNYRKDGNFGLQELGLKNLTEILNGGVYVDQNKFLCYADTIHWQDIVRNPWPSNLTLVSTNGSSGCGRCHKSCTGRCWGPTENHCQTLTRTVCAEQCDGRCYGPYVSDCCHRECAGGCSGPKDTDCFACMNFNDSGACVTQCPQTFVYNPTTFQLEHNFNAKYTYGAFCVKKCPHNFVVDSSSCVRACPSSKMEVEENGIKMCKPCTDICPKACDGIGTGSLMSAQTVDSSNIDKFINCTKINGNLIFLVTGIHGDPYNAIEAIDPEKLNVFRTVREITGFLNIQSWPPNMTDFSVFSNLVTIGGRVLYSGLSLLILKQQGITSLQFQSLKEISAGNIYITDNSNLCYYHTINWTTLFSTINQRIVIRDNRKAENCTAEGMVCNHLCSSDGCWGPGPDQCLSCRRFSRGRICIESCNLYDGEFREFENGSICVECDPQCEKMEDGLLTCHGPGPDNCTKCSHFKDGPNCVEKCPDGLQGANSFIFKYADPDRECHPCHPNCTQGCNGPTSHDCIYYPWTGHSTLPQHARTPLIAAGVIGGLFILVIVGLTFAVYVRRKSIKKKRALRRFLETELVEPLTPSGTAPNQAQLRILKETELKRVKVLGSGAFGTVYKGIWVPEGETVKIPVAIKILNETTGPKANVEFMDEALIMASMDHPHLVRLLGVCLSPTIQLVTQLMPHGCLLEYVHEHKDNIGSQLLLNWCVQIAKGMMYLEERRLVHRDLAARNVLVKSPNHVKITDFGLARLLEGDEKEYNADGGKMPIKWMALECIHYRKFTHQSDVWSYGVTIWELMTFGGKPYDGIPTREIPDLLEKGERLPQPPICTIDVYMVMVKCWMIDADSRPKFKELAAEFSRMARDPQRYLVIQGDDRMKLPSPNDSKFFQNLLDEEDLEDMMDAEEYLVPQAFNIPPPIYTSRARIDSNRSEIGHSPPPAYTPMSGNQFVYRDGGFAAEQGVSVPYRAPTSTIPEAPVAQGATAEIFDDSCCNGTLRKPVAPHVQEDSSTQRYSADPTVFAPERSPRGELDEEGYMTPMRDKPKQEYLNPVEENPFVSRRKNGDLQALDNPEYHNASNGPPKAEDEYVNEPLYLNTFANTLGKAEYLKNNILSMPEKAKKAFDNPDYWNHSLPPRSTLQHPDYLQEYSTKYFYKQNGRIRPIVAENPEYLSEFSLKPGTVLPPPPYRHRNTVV
T1 sequence (Q15303 other isoform, or with tags, fused parts or gaps mutant limits assumed): as the sequence (Q15303 26-1308 limits assumed) above, with T1281A, V1282A, V1283A counted along it

Take “human NRG-1 (Cell Signalling Technology, Cat. #5218) (from UniProt Q02297 177-241) (ligand)”: in assay [1], the Erk activation (Erk phosphorylation, Western blot) in Tjp1 shRNA MCF-7 cells, 15 min stimulation came out at 2.5 ng/mL and the Erk activation (Erk phosphorylation, Western blot) in control shRNA MCF-7 cells, 15 min stimulation lay in the range of 50 to 100 ng/mL.

B1: GST fusion protein carrying the three PDZ domains of Tjp1 (GST-Tjp1 PDZ1-3) (other, human, UniProt Q07157 1-503, looked up)
chain: MSARAAAAKSTAMEETAIWEQHTVTLHRAPGFGFGIAISGGRDNPHFQSGETSIVISDVLKGGPAEGQLQENDRVAMVNGVSMDNVEHAFAVQQLRKSGKNAKITIRRKKKVQIPVSRPDPEPVSDNEEDSYDEEIHDPRSGRSGVVNRRSEKIWPRDRSASRERSLSPRSDRRSVASSQPAKPTKVTLVKSRKNEEYGLRLASHIFVKEISQDSLAARDGNIQEGDVVLKINGTVTENMSLTDAKTLIERSKGKLKMVVQRDERATLLNVPDLSDSIHSANASERDDISEIQSLASDHSGRSHDRPPRRSRSRSPDQRSEPSDHSRHSPQQPSNGSLRSRDEERISKPGAVSTPVKHADDHTPKTVEEVTVERNEKQTPSLPEPKPVYAQVGQPDVDLPVSPSDGVLPNSTHEDGILRPSMKLVKFRKGDSVGLRLAGGNDVGIFVAGVLEDSPAAKEGLEEGDQILRVNNVDFTNIIREEAVLFLLDLPKGEEVTILAQKK
notes: domain: PDZ 1-3 domains; also called GST ZO-1PDZ1-3 domain fusion protein; ZO-1 (Tjp1) PDZ domains; not shown: glutathione S-transferase (GST) tag encoded by the pGEX 4T-1 vector
Take B1: the binding result in assay [2] is “no binding”.
